Experiment [1] deals with human c-Met on cells (MKN-45, A549, HPAF, BxPC3, NCI-H441) (human, UniProt P08581 25-1390). Put plainly: cell-based or functional assay.
Experiment [2] concerns the target Ll10 (aa608-909) (human; Llama glama). Put plainly: ELISA, mAb immobilised, c-Met chimera titrated (EC50 of the chimera). (An ELISA detects its analyte on a solid surface through an enzyme-linked reagent.)
Experiment [3] addresses LS2 (aa1-199) (Llama glama; human) (UniProt P08581). The experiment is described as above.
The target of experiment [4] is LS3 (aa1-287) (Llama glama; human) (UniProt P08581). The description is as above.
The target of experiment [5] is Ll9 (aa572-909) (human; Llama glama). Described as above.
The target of experiment [6] is Ll11 (aa634-909) (human; Llama glama). The experiment is described as above.
Experiment [7] has as its target Ll8 (aa540-909) (human; Llama glama). The description is as above.
The target in experiment [8] is LS5 (aa1-448) (Llama glama; human) (UniProt P08581). The experiment is described as above.
In experiment [9] the target is LS4 (aa1-348) (Llama glama; human) (UniProt P08581). The experiment is described as above.
Experiment [10] has as its target T1, llama c-Met ECD (aa 25-932), His tag (Llama glama).
T1 construct: also called Llama glama c-Met
T1 chain: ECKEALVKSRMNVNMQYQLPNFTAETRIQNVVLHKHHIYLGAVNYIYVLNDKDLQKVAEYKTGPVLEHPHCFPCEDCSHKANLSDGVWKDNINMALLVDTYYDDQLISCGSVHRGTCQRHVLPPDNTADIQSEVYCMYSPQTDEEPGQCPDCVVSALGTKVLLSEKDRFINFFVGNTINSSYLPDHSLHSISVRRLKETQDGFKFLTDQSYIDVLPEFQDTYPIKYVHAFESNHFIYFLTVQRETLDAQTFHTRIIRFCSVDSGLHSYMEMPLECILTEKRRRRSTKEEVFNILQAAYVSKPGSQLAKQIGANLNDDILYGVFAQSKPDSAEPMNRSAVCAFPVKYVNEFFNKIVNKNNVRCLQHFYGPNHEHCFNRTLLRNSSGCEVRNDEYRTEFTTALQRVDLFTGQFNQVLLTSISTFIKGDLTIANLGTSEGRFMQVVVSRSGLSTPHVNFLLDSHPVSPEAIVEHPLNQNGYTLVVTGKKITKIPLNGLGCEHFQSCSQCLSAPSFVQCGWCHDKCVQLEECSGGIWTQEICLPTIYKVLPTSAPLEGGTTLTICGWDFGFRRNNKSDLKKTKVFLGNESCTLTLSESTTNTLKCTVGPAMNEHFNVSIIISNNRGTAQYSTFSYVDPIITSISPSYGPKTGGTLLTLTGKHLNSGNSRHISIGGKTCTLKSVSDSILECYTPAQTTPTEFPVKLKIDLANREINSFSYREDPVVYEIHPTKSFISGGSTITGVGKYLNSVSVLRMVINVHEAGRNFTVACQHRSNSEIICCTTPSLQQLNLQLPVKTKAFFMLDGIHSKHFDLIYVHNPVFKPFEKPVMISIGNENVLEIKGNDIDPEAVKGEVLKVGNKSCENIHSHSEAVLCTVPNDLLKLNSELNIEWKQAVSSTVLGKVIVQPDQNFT
The experiment in a line: ELISA, 200 ng immobilised c-Met protein.

human c-Met on cells (MKN-45, A549, HPAF, BxPC3, NCI-H441), sequence (P08581 25-1390): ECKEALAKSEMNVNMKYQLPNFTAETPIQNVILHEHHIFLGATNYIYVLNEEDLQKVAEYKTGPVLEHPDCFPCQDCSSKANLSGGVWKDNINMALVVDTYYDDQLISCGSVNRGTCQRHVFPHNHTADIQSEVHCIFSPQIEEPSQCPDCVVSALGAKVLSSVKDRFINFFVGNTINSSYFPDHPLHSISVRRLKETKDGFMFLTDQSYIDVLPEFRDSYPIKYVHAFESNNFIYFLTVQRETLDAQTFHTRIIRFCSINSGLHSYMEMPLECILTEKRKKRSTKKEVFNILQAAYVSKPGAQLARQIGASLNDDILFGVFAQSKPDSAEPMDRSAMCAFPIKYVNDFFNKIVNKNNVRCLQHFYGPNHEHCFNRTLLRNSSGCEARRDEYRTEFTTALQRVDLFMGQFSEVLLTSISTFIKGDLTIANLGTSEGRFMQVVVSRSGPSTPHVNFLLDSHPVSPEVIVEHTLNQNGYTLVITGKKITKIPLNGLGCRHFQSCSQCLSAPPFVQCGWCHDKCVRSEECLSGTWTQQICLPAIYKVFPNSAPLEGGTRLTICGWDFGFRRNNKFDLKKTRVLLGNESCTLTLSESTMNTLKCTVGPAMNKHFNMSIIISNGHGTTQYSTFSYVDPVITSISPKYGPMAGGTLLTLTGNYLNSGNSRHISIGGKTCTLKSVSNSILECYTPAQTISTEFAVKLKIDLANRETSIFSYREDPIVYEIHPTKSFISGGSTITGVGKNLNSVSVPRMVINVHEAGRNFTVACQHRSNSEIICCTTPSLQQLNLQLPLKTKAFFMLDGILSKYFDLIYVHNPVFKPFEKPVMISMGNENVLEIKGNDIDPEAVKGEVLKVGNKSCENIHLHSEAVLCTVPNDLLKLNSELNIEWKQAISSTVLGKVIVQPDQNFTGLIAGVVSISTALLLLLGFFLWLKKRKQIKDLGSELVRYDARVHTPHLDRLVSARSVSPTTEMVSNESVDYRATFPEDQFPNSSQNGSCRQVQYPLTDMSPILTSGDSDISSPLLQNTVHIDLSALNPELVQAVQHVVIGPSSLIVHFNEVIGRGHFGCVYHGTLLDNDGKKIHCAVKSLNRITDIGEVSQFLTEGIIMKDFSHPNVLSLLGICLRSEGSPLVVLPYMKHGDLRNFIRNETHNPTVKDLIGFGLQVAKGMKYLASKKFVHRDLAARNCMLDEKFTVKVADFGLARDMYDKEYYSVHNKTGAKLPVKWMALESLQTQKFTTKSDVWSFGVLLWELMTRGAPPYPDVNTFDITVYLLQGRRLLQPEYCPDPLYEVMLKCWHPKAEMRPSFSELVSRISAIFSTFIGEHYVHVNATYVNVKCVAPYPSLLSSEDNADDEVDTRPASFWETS

B1: 40B8 (antibody, V domains shown)
VH: EVQLVQPGAELRNPGASVKVSCKASGYTFTNYVIDWVRQAPGQGLEWMGRIDPENGGTRYAQKFQGRVTFTADTSTSTAYVELSNLRSEDTAVYYCARLEDYELAYDYWGQGTQVTVSS
VL: DIVMTQTPSSVTASAGEKVTINCKSSQSVLLSSNQKNYLAWYQQRLGQSPRLLIYWASTRESGVPDRFSGSGSTTDFTLTISSFQPEDAAVYYCQQGVSFPLTFGQGTKVELK
With B1, in [1], the “ADCC, specific lysis of MKN-45 cells, EC50” value (shortened to “ADCC, specific lysis”) came out at 0.0046 µg/mL and the “antibody-induced proliferation of BxPC3 cells, percentage of the proliferation obtained with 75 ng/ml HGF” value was less than 20%.

B2: Potelligent 36C4 (antibody, V domains shown)
VH: QVQLVESGPGLVKPSQTLSLTCAVSGGSITTNYYYWSWIRQSPGKGLEWMGVIAYDGSTDYSPSLKSRTSISRDTSKNQFSLQLSSVTPEDTAVYYCARDVRVIATGWATANALDAWGQGTLVTVSS
VL: QSVLTQPPSVSGSPGKTVTISCAGTSSDVGYGNYVSWYQQLPGTAPKLLIFAVSYRASGIPDRFSGSKSGNTAFLTISGLQSEDEADYYCASYRSSNNAAVFGGGTHLTVL
modifications: defucosylated (produced in Potelligent CHO cells)
Take B2: in experiment [1], the “ADCC, 51Cr release assay on NCI-H441 cells, EC50” value turned out to be 0.04 µg/mL and the “ADCC, 51Cr release, lysis of NCI-H441 cells, IC50” value was 0.00013 µg/mL.

B3: 36C4E (antibody, V domains shown)
VH: B2 VH
VL: B2 VL
As to B3, the “ADCC, 51Cr release assay on NCI-H441 cells, EC50” value in experiment [1] was found to be 0.26 µg/mL.

B4: 38H10 (antibody, V domains shown)
VH: EVQLVQPGVELRNPGASVKVSCKASGYIFTMNSIDWVRQAPGQGLEWMGRIDPEDGGTKYAQKFQGRVTFTADTSTSTAYVELNSLRSEDTAVYYCARVDDYYLGYDYWGQGTQVTVSS
VL: EIVMTQSPSSVTASAGEKVTINCKSSQSVLWRSNQKNYLAWYQQRLGQSPRLLISWASIRESGVPDRFSGSGSTTDFTLTISSFQPEDAAVYYCQQGYSFPYTFGSGTRLEIK
Regarding B4, the “antibody-induced proliferation of BxPC3 cells, percentage of the proliferation obtained with 75 ng/ml HGF” value in experiment [1] was less than 20%.

B5: 48A2 (antibody, V domains shown)
VH: B4 VH
VL: DIVMTQTPTSVTASAGDKVTINCKSSQSVLFSSNQKNYLAWYQQRLGQSPRLLIYWASIRESGVPDRFSGSGSATDFTLTISNFQPEDAAVYYCQQGYSFPYSFGSGTRLEIR
The term EC50 denotes the concentration at which the effect is half-maximal. Lower therefore signals greater potency. B5: the EC50 is more than 0.04 µg/mL in experiment [2]; 0.034 µg/mL in experiment [3]; 0.05 µg/mL in [4]; more than 0.04 µg/mL in experiment [5]; 0.042 µg/mL in [6]; more than 0.04 µg/mL in [7]. The EC50 came to 0.05 µg/mL in experiment [8] and 0.07 µg/mL in [9]. Further, the “ADCC, specific lysis” value in experiment [1] stood at 0.0043 µg/mL.

B6: 13E6 (antibody, V domains shown)
VH: QVQLQESGGDLVQPGGSLRLSCAASGFTFDDYVMNWVRQAPGKGLEWISAINWNGGSTYYAESMKGRFTISRDNAKNTLYLQMYSLQSDDTAVYYCVKDTVVSGNGYWGQGTQVTVSS
VL: QSVLTQPPSVSGTLGKTVTISCAGTSSDIGDYNYVSWYQQLPGTAPKLLIYDVNKRASGIPDRFSGSKSGNTASLSISGLQSEDEADYYCASYRSRNDYAFGGGTKLTVL
notes: also called mAb 13E6
Regarding B6, the binding result in experiment [10] is given as “no binding”.

B7: chimeric 224G11 (antibody, human IgG1, V domains shown)
VH: EVQLQQSGPELVKPGASVKISCKTSGYIFTAYTMHWVRQSLGESLDWIGGIKPNNGLANYNQKFKGKATLTVDKSSSTAYMDLRSLTSEDSAVYYCARSEITTEFDYWGQGTALTVSS
VL: DIVLTQSPASLAVSLGQRATISCRASESVDSYANSFMHWYQQKPGQPPKLLIYRASNLESGIPARFSGSGSRTDFTLTINPVEADDVATYYCQQSKEDPLTFGSGTKLEMK
As to B7, the “ADCC, specific lysis” value in experiment [1] was 0.0028 µg/mL.

For the origin of these results see patent US20180215833A1 (published 2018).
